This sample holds only a part of the variants without activity.
Key:
[1] = test system: biotinyl-Phe-oxazolone; experiment: self-aminoacylation, catalytic enhancement (BFO) (fold over background); higher = more active; k-Seq, kA / k0A0; sequences stand for … in GGGAAUGGAUCCACAUCUACGAAUUC…UUCACUGCAGACUUGACGAAGCUG
How it was run: (§1)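 Catalytic enhancement equals the median kA over the uncatalyzed rate, the latter read from the low-activity peak of a bimodal Gaussian fit. Values of kA came from fitting each sequence's fraction reacted to a pseudo-first-order model, with 1000 bootstraps. Reacted RNA was captured with streptavidin and quantified by triplicate qPCR and Illumina sequencing after 90 minutes at room temperature with 2–1250 μM biotinyl-aminoacyl-oxazolone and 0.43 μM mutagenized RNA pools bearing a 21-nt variable region.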

[2] = test system: biotinyl-Val-oxazolone; experiment: self-aminoacylation, catalytic enhancement (BVO) (fold over background); higher = more active; k-Seq, kA / k0A0; sequences stand for … in GGGAAUGGAUCCACAUCUACGAAUUC…UUCACUGCAGACUUGACGAAGCUG
How it was run: as §1

[3] = test system: biotinyl-Leu-oxazolone; experiment: self-aminoacylation, catalytic enhancement (BLO) (fold over background); higher = more active; k-Seq, kA / k0A0; sequences stand for … in GGGAAUGGAUCCACAUCUACGAAUUC…UUCACUGCAGACUUGACGAAGCUG
How it was run: as §1

[4] = test system: biotinyl-Met-oxazolone; experiment: self-aminoacylation, catalytic enhancement (BMO) (fold over background); higher = more active; k-Seq, kA / k0A0; sequences stand for … in GGGAAUGGAUCCACAUCUACGAAUUC…UUCACUGCAGACUUGACGAAGCUG
How it was run: as §1

[5] = test system: biotinyl-Trp-oxazolone; experiment: self-aminoacylation, catalytic enhancement (BWO) (fold over background); higher = more active; k-Seq, kA / k0A0; sequences stand for … in GGGAAUGGAUCCACAUCUACGAAUUC…UUCACUGCAGACUUGACGAAGCUG
How it was run: as §1

[6] = test system: biotinyl-Ile-oxazolone; experiment: self-aminoacylation, catalytic enhancement (BIO) (fold over background); higher = more active; k-Seq, kA / k0A0; sequences stand for … in GGGAAUGGAUCCACAUCUACGAAUUC…UUCACUGCAGACUUGACGAAGCUG
How it was run: as §1

Sequence | self-aminoacylation [1] | self-aminoacylation [2] | self-aminoacylation [3] | self-aminoacylation [4] | self-aminoacylation [5] | self-aminoacylation [6]
AUUACCCCGGUGAUCGAGUGA [Fam2.1 aminoacylation ribozyme variant] | 21.5 | 2.23 | 3.33 | 3.73 | 4.35 | 2.23
AUUAUCCUGGUCACCGAGUGA [Fam2.1 aminoacylation ribozyme variant] | 54 | 3.84 | 8.43 | 7.82 | 8.39 | 3.11
AUACACCUAGGUCUUCGGGUG [Fam2.2 aminoacylation ribozyme variant] | 23.2 | 3.04 | 3.72 | 2.71 | 2.64 | 2.7
CUACUUCAAAGACUCGGUCUG [Fam1A.1 aminoacylation ribozyme variant] | 3.52 | 1.2 | 1.01 | 1.16 | 1.35 | 1.12
CCACACUUCCACCAAUCGGUC [Fam1B.1 aminoacylation ribozyme variant] | 0.478 | 0.962 | 0.643 | 0.51 | 0.847 | 0.908
AUUGAGCUAGGUCAUCGGGUG [Fam2.2 aminoacylation ribozyme variant] | 26.6 | 3.55 | 5.61 | 3.78 | 5.57 | 3.41
AAGUUUGCUAAUACUCGCAAG [Fam3.1 aminoacylation ribozyme variant] | 0.812 | 0.652 | 0.553 | 0.569 | 0.607 | 0.659
AAGUUUGCGAAUAGUCGCCAG [Fam3.1 aminoacylation ribozyme variant] | 9.03 | 1.78 | 1.29 | 1.8 | 1.62 | 1.74
AAGUUUGCGAAUAGUCGGAAG [Fam3.1 aminoacylation ribozyme variant] | 0.764 | 0.964 | 1.1 | 1.38 | 2.32 | 0.977
CCUCACUUCAAGUAAUCGGUC [Fam1B.1 aminoacylation ribozyme variant] | 14.2 | 0.821 | 1.17 | 0.949 | 8.32 | 1
CCACUCUUCAAGCAAUCGUUC [Fam1B.1 aminoacylation ribozyme variant] | 1.06 | 0.857 | 0.724 | 0.915 | 0.68 | 0.87
AUUACCCUGCUCAUCGGGUGA [Fam2.1 aminoacylation ribozyme variant] | 33.5 | 3.34 | 5.17 | 4.81 | 6 | 2.63
AUUACCCUGGAGAUCGAGUGA [Fam2.1 aminoacylation ribozyme variant] | 28.9 | 3.79 | 7.42 | 6.7 | 8.06 | 3.59
AUUCACCUAGGUCAACGGCUG [Fam2.2 aminoacylation ribozyme variant] | 0.492 | 1.09 | 1.17 | 1.07 | 0.872 | 1.12
CUAUUUCAAGCAAUCGGUCUG [Fam1A.1 aminoacylation ribozyme variant] | 1.61 | 0.795 | 0.996 | 0.741 | 0.883 | 0.881
CUACUUCAUACAAUCGGUCUA [Fam1A.1 aminoacylation ribozyme variant] | 0.751 | 0.703 | 0.68 | 0.926 | 0.555 | 0.835
CUACUUAAAACAAUCGGUGUG [Fam1A.1 aminoacylation ribozyme variant] | 0.821 | 0.684 | 0.96 | 0.72 | 1.17 | 0.596
AUUCACCUAUCUCAUCGGGUG [Fam2.2 aminoacylation ribozyme variant] | 19.4 | 2.09 | 4.13 | 3.1 | 3.46 | 2.18
AUUCCCCUGUUCAUCGAGUGA [Fam2.1 aminoacylation ribozyme variant] | 12.4 | 4.28 | 5.39 | 5.28 | 7.62 | 4.07
AUUGACCUAGGUCAUCGAGUG [Fam2.2 aminoacylation ribozyme variant] | 27.9 | 5 | 13.7 | 9.94 | 6.09 | 6.03
AUUCACCUAGCUCAUCGGCUG [Fam2.2 aminoacylation ribozyme variant] | 3.23 | 1.96 | 2.05 | 1.92 | 1.25 | 1.67
CUACUUCAAACUAACGGUCUG [Fam1A.1 aminoacylation ribozyme variant] | 0.924 | 0.75 | 0.796 | 0.787 | 0.665 | 0.778
AAGCUUGCUAAUAGACGCAAG [Fam3.1 aminoacylation ribozyme variant] | 1.7 | 0.9 | 0.763 | 1.51 | 0.574 | 0.821
AUUACCCUCGUCAUCGAGUGC [Fam2.1 aminoacylation ribozyme variant] | 1.29 | 0.864 | 1.17 | 0.914 | 0.477 | 0.96
CUUACCCUGGUCAUCGAGCGA [Fam2.1 aminoacylation ribozyme variant] | 1.09 | 1.35 | 1.96 | 2.13 | 2.72 | 1.36
AUUCGCCUAGGUCAUCGGGGG [Fam2.2 aminoacylation ribozyme variant] | 30 | 3.72 | 7.51 | 5.82 | 3.54 | 4.36

Sequence | self-aminoacylation [1] | self-aminoacylation [2] | self-aminoacylation [3] | self-aminoacylation [4] | self-aminoacylation [5] | self-aminoacylation [6]
CCACUUCAAGCAAUCGGUCUG [Fam1A.1 aminoacylation ribozyme variant] | 18.6 | 1.28 | 1.22 | 1.15 | 11.8 | 1.23
AUGACCCUGGCCAUCGAGUGA [Fam2.1 aminoacylation ribozyme variant] | 32 | 3.66 | 7.68 | 5.04 | 6.4 | 3.03
AUGACCCUGUUCAUCGAGUGA [Fam2.1 aminoacylation ribozyme variant] | 17.7 | 3.03 | 5.72 | 4.75 | 6.05 | 3.16
AUUCACCCAGGACAUCGGGUG [Fam2.2 aminoacylation ribozyme variant] | 30.2 | 3.27 | 2.83 | 2.8 | 3.3 | 2.97
AUUACCCGGGUCAUCGAGUGU [Fam2.1 aminoacylation ribozyme variant] | 10.8 | 2.11 | 3.19 | 3.48 | 3.42 | 2.33
CUACUUCAAACAAUCAAUCUG [Fam1A.1 aminoacylation ribozyme variant] | 1.73 | 0.767 | 0.602 | 0.683 | 0.669 | 0.794
GUUCACCUAGGUCGUCGGGUG [Fam2.2 aminoacylation ribozyme variant] | 11 | 2.1 | 2.04 | 2.44 | 2.08 | 1.67
AUUGACCUAGGCCAUCGGGUG [Fam2.2 aminoacylation ribozyme variant] | 39.3 | 4.27 | 5.7 | 4.78 | 6.22 | 3.65
CCAUACUUCAAGCAAUCUGUC [Fam1B.1 aminoacylation ribozyme variant] | 0.503 | 0.555 | 0.384 | 0.439 | 0.251 | 0.536
AUUACCCUUGUCUUCGAGUGA [Fam2.1 aminoacylation ribozyme variant] | 18.9 | 2.73 | 4.49 | 4.46 | 6.14 | 2.64
AUUCACCUAAGUUAUCGGGUG [Fam2.2 aminoacylation ribozyme variant] | 51 | 3.96 | 8.59 | 6.15 | 5.61 | 3.83
CUUAUCCUGGUCAUCGAGUGA [Fam2.1 aminoacylation ribozyme variant] | 7.87 | 3.42 | 6.22 | 6.26 | 6.96 | 3.22
CCACACUUCAAGCAAUCGUAC [Fam1B.1 aminoacylation ribozyme variant] | 1.29 | 0.669 | 0.58 | 0.351 | 0.546 | 0.473
AUUCACCUAGGUUUUCGGGUG [Fam2.2 aminoacylation ribozyme variant] | 34.3 | 3.5 | 5.21 | 4.67 | 4.06 | 3.03
CUACUUCAAGCAAUCCGUCUG [Fam1A.1 aminoacylation ribozyme variant] | 1.86 | 1.17 | 0.941 | 0.833 | 1.25 | 1
AAGUUUGCAAACAGUCGCAAG [Fam3.1 aminoacylation ribozyme variant] | 1.47 | 0.735 | 0.93 | 0.798 | 0.595 | 0.775
AUUCACCUAGGUCAUGGGCUG [Fam2.2 aminoacylation ribozyme variant] | 0.402 | 1.33 | 1.66 | 1.54 | 1.17 | 1.63
CUACUUCACACAAUCGGUGUG [Fam1A.1 aminoacylation ribozyme variant] | 0.67 | 1.25 | 1.22 | 1.65 | 0.513 | 1.07
AAGUUUGCUAAUAGUGGAAAG [Fam3.1 aminoacylation ribozyme variant] | 0.794 | 0.944 | 0.876 | 1.2 | 0.946 | 1.21
AUUACCCUCUUCAUCGAGUGA [Fam2.1 aminoacylation ribozyme variant] | 1.52 | 1.11 | 1.41 | 1.33 | 0.851 | 1.02
AUUACGCUGGGCAUCGAGUGA [Fam2.1 aminoacylation ribozyme variant] | 43.1 | 4 | 7.76 | 7.19 | 6.96 | 3.69
CUACUACAAACAAUCGGUAUG [Fam1A.1 aminoacylation ribozyme variant] | 0.567 | 0.584 | 0.454 | 0.597 | 0.505 | 0.617
AUUAGCCUGGUCUUCGAGUGA [Fam2.1 aminoacylation ribozyme variant] | 35.9 | 3.28 | 5.63 | 5.53 | 6.87 | 3.5
AUUACCCUCGUCAUUGAGUGA [Fam2.1 aminoacylation ribozyme variant] | 11.2 | 2.55 | 3.99 | 4.09 | 5.16 | 2.22
CCGCACUUCAAGCAAUCGGGC [Fam1B.1 aminoacylation ribozyme variant] | 2.26 | 2.52 | 1.69 | 1.35 | 2.11 | 1.92

Reference: the supplement of paper PMC9233669
